{"source": "paper doi:10.64898/2025.12.13.693833", "about": "(bioRxiv, 2025)", "molecules": {"B1": {"name": "GST-ENSA^S67D-His6 (natural protein, human, UniProt O43768 1-121, looked up)", "chain": "MSQKQEEENPAEETGEEKQDTQEKEGILPERAEEAKLKAKYPSLGQKPGGSDFLMKRLQKGQKYFDDGDYNMAKAKMKNKQLPSAGPDKNLVTGDHIPTPQDLPQRKSSLVTSKLAGGQVE"}, "B2": {"name": "His6-TEV site-ENSA^S67D (natural protein, human, UniProt O43768 1-121, looked up)", "chain": "B1 chain"}, "B3": {"name": "GST-ENSA^S67D E30A-His6 (natural protein, human, UniProt O43768 1-121, looked up)", "chain": "B1 chain with E30A"}, "B4": {"name": "GST-ENSA^S67D K40A-His6 (natural protein, human, UniProt O43768 1-121, looked up)", "chain": "B1 chain with K40A"}, "B5": {"name": "GST-ENSA^S67D R57A-His6 (natural protein, human, UniProt O43768 1-121, looked up)", "chain": "B1 chain with R57A"}, "B6": {"name": "GST-ENSA^WT-His6 (natural protein, human, UniProt O43768 1-121, looked up)", "chain": "B1 chain with D67S"}}, "key": {"PP2A Aα subunit (human)": {"molecular_target": "PP2A Aα subunit (human) (UniProt P30153)", "sequence (P30153 whole entry)": "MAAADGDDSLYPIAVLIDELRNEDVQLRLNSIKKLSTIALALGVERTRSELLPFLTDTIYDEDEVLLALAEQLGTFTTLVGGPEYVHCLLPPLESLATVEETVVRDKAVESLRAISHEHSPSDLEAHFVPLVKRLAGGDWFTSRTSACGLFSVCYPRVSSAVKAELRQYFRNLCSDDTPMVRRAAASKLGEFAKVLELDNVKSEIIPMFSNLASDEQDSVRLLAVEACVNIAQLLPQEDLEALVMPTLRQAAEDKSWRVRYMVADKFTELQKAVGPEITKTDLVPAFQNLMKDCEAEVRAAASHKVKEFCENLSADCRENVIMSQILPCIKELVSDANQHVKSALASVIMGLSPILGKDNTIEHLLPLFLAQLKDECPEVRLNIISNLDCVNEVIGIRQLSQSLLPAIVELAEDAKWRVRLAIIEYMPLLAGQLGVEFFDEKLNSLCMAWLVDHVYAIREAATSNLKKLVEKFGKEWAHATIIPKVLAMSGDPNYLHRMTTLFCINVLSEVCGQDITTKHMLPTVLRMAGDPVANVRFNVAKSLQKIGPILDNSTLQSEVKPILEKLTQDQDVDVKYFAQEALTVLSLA", "test": "MST"}, "PP2A Cα subunit [1]": {"molecular_target": "T1, PP2A Cα subunit (human, UniProt P67775 2-309)", "T1 sequence (P67775 2-309)": "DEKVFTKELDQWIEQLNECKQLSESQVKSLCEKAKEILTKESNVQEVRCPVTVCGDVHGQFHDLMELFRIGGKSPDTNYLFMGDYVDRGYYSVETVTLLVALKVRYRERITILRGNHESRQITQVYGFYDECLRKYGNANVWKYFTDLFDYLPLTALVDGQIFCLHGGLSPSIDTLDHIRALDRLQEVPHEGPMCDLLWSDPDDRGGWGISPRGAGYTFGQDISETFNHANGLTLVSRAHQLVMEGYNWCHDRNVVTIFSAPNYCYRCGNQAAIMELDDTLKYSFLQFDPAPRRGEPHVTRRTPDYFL", "test": "BLI"}, "PP2A(B55α) holoenzyme [2]": {"molecular_target": "T2, PP2A(B55α) holoenzyme (human, UniProt P30153 1-589; P63151 1-447; P67775 2-309)", "T2 sequence (P30153 whole entry, chain 1 of 3)": "as the sequence (P30153 whole entry) above", "T2 sequence (P63151 whole entry, chain 2 of 3)": "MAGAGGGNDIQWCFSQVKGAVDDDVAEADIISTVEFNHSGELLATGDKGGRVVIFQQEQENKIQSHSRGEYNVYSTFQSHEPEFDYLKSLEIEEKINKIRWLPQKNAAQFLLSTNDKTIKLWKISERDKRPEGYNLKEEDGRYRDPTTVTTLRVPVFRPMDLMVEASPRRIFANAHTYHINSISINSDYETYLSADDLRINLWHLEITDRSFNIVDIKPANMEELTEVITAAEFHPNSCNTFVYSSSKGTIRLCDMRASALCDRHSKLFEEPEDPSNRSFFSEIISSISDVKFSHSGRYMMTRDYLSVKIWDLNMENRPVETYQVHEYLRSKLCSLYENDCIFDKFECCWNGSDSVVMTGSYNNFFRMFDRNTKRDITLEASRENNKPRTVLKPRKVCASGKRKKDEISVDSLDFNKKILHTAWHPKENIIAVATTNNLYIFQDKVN", "T2 sequence (P67775 2-309, chain 3 of 3)": "as the sequence (P67775 2-309) above", "test": "BLI"}, "PP2A Cα subunit [3]": {"molecular_target": "T1, PP2A Cα subunit", "test": "cryo-EM structure"}, "PP2A(B55α) holoenzyme [4]": {"molecular_target": "T2, PP2A(B55α) holoenzyme", "test": "BLI", "remark": "listed apart in the source"}}, "note": "Where a chain is given by its changes, count along the chain named. Numbers in names are those of the source.", "data": [{"molecule": "tag-free ENSA^S67D (from UniProt O43768 1-121) (natural protein)", "values": [{"measurement": "Kd", "setting": "PP2A Aα subunit (human)", "result": 800, "unit": "µM"}]}, {"molecule": "tag-free ENSA^WT (from UniProt O43768 1-121) (natural protein)", "values": [{"measurement": "Kd", "setting": "PP2A Aα subunit (human)", "result": 600, "unit": "µM"}]}, {"molecule": "B1", "values": [{"measurement": "binding result", "setting": "PP2A Cα subunit [1]", "result": "binds"}, {"measurement": "Kd", "setting": "PP2A(B55α) holoenzyme [2]", "result": 0.66, "unit": "µM"}]}, {"molecule": "B2", "values": [{"measurement": "binding result", "setting": "PP2A Cα subunit [3]", "result": "binds"}]}, {"molecule": "B3", "values": [{"measurement": "binding result", "setting": "PP2A(B55α) holoenzyme [4]", "result": "binds"}]}, {"molecule": "B4", "values": [{"measurement": "binding result", "setting": "PP2A(B55α) holoenzyme [4]", "result": "binds"}]}, {"molecule": "B5", "values": [{"measurement": "binding result", "setting": "PP2A(B55α) holoenzyme [4]", "result": "binds"}]}, {"molecule": "B6", "values": [{"measurement": "Kd", "setting": "PP2A(B55α) holoenzyme [2]", "result": 1.45, "unit": "µM"}]}]}
